# Experimental data published in the DeepSol protein solubility set.
# Test: soluble on expression in E. coli; label from the status in PepcDB or PDB records
row,Sequence,soluble on expression in E. coli
1,MKNKPLGLWLMSLLVLVGCKANQDDLTSYVAQVEREARKEVTKLKPILEFEATPYQQHKGREPFVLPKEALVQNQPLAKADCWQPVPRAKNGPLERYPLHQLRLKGVMSSGGSISALVQTPAGSVVKVKAGQYVGINNGKVTRVDDNYLLINETLPDGLGCWNQRNVKLALK,not soluble
2,MKNNADFAYQAVYRYLVQLVDQGQGESALKMPSLRHLAQRLRVSISTVQSAYSLLEKEGRIYSVAKSGYYSAPRSAAIEVRARFDSDGDLLQMHHYYARRSGMSLLSSDAPTLLQAQESPLLAMEHELVRNYPRPRQADFQPFGELQLRIALAARYTRGAEHCWHADNVHVAPDVHGAFKAVIETLGLRGGAVLVESPCAWGLLRLLRSFDIRVIELPLDETGSLDPIQLERLLLENNVGLVVLPSMFNSVRGSVRPLCNSRAVAKVLDRHQVWVLENDSHGALQFAADQTCLRHLIDPQRLIIIGTFEKCLGPEAPYGYLLCKNLDARWQAYFLLRAFELPPTRQRAIARLCSSGRLDKHLAQLREALAGHLQLMMQHLNEHTDGLLRYEVPEGGCGIWARSVYPVDMRQVFNRLLAKRIVITPGELFSLESLYGQHLWISYAIDWSRDPGELFSALAQALHLARQP,not soluble
3,MKNNKIYLLGACLLCAVTTFAQNVSLQPPPQQLIVQNKTIDLPAVYQLNGGEEANPHAVKVLKELLSGKQSSKKGMLISIGEKGDKSVRKYSRQIPDHKEGYYLSVNEKEIVLAGNDERGTYYALQTFAQLLKDGKLPEVEIKDYPSVRYRGVVEGFYGTPWSHQARLSQLKFYGKNKMNTYIYGPKDDPYHSAPNWRLPYPDKEAAQLQELVAVANENEVDFVWAIHPGQDIKWNKEDRDLLLAKFEKMYQLGVRSFAVFFDNISGEGTNPQKQAELLNYIDEKFAQVKPDINQLVMCPTEYNKSWSNPNGNYLTTLGDKLNPSIQIMWTGDRVISDITRDGISWINERIKRPAYIWWNFPVSDYVRDHLLLGPVYGNDTTIAKEMSGFVTNPMEHAESSKIAIYSVASYAWNPAKYDTWQTWKDAIRTILPSAAEELECFAMHNSDLGPNGHGYRREESMDIQPAAERFLKAFKEGKNYDKADFETLQYTFERMKESADILLMNTENKPLIVEITPWVHQFKLTAEMGEEVLKMVEGRNESYFLRKYNHVKALQQQMFYIDQTSNQNPYQPGVKTATRVIKPLIDRTFATVVKFFNQKFNAHLDATTDYMPHKMISNVEQIKNLPLQVKANRVLISPANEVVKWAAGNSVEIELDAIYPGENIQINFGKDAPCTWGRLEISTDGKEWKTVDLKQKESRLSAGLQKAPVKFVRFTNVSDEEQQVYLRQFVLTIEKK,soluble
4,MKNRIIAAGVIAASILSYSSSSFAQTKTFPDVQTGHWAEDSINYLAEKGAVTGNEKGMFEPGKEITRAEAATMMAKILNLPIDKNAKPSYADSQKHWATPIIAAVEKAGVVKGTGNGFEPDGKIDRVSMASLLVEAYKLESKVNGTPATKFKDLETLNWGKEKANILVELGISVGTGDKWEPKKILTKAEAAQFIKKADSLKVGNPLVEKVVIIDPGHGGFDPGNPGQGVEESKIVFDTSLRLQKLLEKNTPLKALLTREENGNPGSNKNESLANRVKFGQENNADIFVSIHANSSEKHDGHGTETYYYKKSKRGEETQIEKDSEVLAKKIQNRVVEALHTRDRKIKDDHSLYVVNNNTVPAVLTELAFIDNDIDNGKLATESGRQIAAEAVYAGILDYYEWKGFDVSKYRLAK,not soluble
5,MKNTSRDTVVMSWWDFGHLFAVAADRPVTFDGGSQNTPRAYWIGKALTTSNETLSRGILTMLSTSGDLAYETLDNYTDDSGKTAEILTATLGLPREEARAVMTGRYGLSDKEADSVLRYSHPAKPKPFVLVLSSDMLGKAPWWTYFGTWDFKKKTGSRYGYYPSLEHHHHHH,soluble
6,MKNVKTIAAAVVLATMTFGASAAEYVSPSQAQNLEKAGVVTATAQDLSSLQSQLAAKAEKAGAKAYTITSATGNDQLRGSAVIFN,not soluble
7,MKPFLSACLIVKNEEEMLGKCLESLRRVIEEIIVVDTGSTDSTKEIARQFTDKVYDFEWMNDFSEARNFAASKANGEWIIAIDADECVDPDNFKEAIKEIKFHQNKFNMYLVEITSFSGALGENTTVNQMPRIYVNDGTICYKRAIHEQLEAVEGGLRVSLSSLKVYHYGYLSNVVVKQDKKS,soluble
